One series deals with T1, hfCas12Max (v6.3) (N243R,E336R,D892R).
T1 chain: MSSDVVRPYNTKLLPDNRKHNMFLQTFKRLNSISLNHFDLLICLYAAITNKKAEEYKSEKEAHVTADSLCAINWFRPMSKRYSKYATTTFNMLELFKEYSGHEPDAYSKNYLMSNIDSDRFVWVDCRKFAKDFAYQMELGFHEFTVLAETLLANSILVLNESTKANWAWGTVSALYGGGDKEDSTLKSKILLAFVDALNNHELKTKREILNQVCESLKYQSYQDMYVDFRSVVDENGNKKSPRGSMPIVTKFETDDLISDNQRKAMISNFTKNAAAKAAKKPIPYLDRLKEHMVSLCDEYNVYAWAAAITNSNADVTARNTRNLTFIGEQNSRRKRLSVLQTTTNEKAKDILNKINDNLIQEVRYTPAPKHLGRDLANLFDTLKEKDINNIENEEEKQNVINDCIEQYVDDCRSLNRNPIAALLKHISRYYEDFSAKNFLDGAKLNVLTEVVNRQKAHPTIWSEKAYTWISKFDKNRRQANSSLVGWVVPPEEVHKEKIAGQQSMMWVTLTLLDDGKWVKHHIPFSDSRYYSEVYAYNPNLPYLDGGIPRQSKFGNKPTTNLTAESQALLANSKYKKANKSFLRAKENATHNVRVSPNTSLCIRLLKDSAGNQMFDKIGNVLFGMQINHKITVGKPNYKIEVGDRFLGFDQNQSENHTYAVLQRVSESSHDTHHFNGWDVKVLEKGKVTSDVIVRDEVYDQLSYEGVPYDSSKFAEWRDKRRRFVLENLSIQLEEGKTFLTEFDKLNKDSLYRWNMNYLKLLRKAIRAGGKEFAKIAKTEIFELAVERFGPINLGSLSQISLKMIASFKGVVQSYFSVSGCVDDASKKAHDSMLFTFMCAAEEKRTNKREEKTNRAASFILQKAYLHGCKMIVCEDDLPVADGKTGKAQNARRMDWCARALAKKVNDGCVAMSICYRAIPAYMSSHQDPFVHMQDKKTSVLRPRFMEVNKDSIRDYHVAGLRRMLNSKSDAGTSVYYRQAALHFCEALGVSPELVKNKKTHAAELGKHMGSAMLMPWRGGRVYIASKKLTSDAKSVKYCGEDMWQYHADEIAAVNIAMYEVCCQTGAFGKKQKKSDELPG
Kind of series: cell_activity; PAM TTTG; on-target. The settings on record: tags: NLS.

The target in a further series is T2, xCas12i v6.1 (N243R,E336R,V880R).
T2 chain: T1 chain with V880R, R892D
Kind of series: cell_activity; PAM TTTG; on-target. The settings on record: tags: NLS.

We go through 1 molecule from US20250283063, “NOVEL CRISPR-CAS12I SYSTEMS AND USES THEREOF” (HUIDAGENE THERAPEUTICS (SINGAPORE) PTE. LTD., published 2025).

Changes are numbered by the printed parent chain.

B1: TTR.2 crRNA ; TTR ON.1 (ssRNA ; dsDNA)
RNA: AUGACUCAGAAAUGUGUCCCCAGUUGACACUAGAAGGGAUAUACAAAGUGGA
DNA 1: TTTGTAGAAGGGATATACAAAGTGGA
DNA 2: TCCACTTTGTATATCCCTTCTACAAA
Take B1: the activity in the series with hfCas12Max (v6.3) was 77.7%; with xCas12i v6.1, 75.7%.
